Article PMC7644594

Target: EPHA2 tagged with a fluorescent protein for FRET (EPHA2-mClover3, EPHA2-mRuby3) (human) (UniProt P29317)
Test: FRET or BRET

N-FRET: 0.347
Substance: EPHA2 tagged with a fluorescent protein for FRET (EPHA2-mClover3, EPHA2-mRuby3) (from UniProt P29317 24-976) (receptor)
